Laboratory results published in the DeepSol protein solubility set.

assay: soluble on expression in E. coli; label from the status in PepcDB or PDB records

Sequence	soluble on expression in E. coli
MGSDKIHHHHHHMIINRSKDSSSNEISFVSKDMGFLLTQSEVSYNFKDKLVEDIAKQVFAENRLSVGTIAKTNVKYTKMFIGVNGYDTIMSAYTEASKKTKKKYMIEANLDKFNVIEKGTVTLSVMFEEGFNIINTTFSESMENVKNKVIVVDQYGSKISEKIDNEIFKEVNVIMQKVIQQQENQDVDIDSEFNGIEKSCSLKGYGDVSCITGRGVKVKDSYTKLVGLFYIDTDKHTWQNGEYQIELELNFQNLMDEKSAGQDEPKEESNLGGEDYAGGKEFTAEFTAYCPRKEEGGDTDCRKKKLDPSKKTCAAPMVGKYEQTYYTKEFLNKHPLLNYGDEIQVITGVSGRDGVYKVNDVGPAITIEKNGTYHIDILFGNVEEASKFGRRKGKIIIGGYSGNVSDKAKIVISEAKKHLGKPYKWGGNGPSSFDCSGLMVYCFKKVNVSLPRTSNQQSKKGKKVEQKNLQAGDLVFFHNPVSHVGLYIGNGEFLHAPQKGDVVKISKLSSRRDFNTARRVL	not soluble
MAETFKIRKLEISDKRKGFIELLGQLTVTGSVTDEEFDRRFEEIRSYGDDHVICVIEEETSGKIAATGSVMIEKKFLRNCGKAGHIEDVVVDSRFRGKQLGKKVVEFLMDHCKSMGCYKVILDCSVENKVFYEKCGMSNKSIQMSKYFD	soluble
SPSYTVLGQLPDTDVYIDIDAYEEVKEIPGIKIFQINAPIYYANSDLYSSALKRKTGVNGSENIHTVILDFTQVNFMDSVGVKTLAGIVKEYGDVGIYVYLAGCSAQVVNDLTSNRFFENPALKELLFHSIHDAVLGSQVREA	soluble
MASGAGGVGGGGGGKIRTRRCHQGPIKPYQQGRQQHQGILSRVTESVKNIVPGWLQRYFNKNEDVCSCSTDTSEVPRWPENKEDHLVYADEESSNITDGRITPEPAVSNTEEPSTTSTASNYPDVLTRPSLHRSHLNFSMLESPALHCQPSTSSAFPIGSSGFSLVKEIKDSTSQHDDDNISTTSGFSSRASDKDITVSKNTSLPPLWSPEAERSHSLSQHTATSSKKPAFNLSAFGTLSPSLGNSSVLKTSQLGDSPFYPGKTTYGGAAAAVRQSKLRNTPYQAPVRRQMKAKQLSAQSYGVTSSTARRILQSLEKMSSPLADAKRIPSIVSSPLNSVDSQYPPVQRLMTPKPVSIATNRSVYFKPSLTPSGEFRKTNQRIDKKCSTGYEKNMTPGQNREQRESGFSYPNFSLPAANGLSSGVGGGGGKMRRERTRFVASKPLEEEEMEVPVLPKISLPITSSSLPTFNFSSPEITTSSPSPINSSQALTNKVQMTSPSSTGSPMFKFSSPIVKSTEANVLPPSSIGFTFSVPVAKTAELSGSSSTLEPIISSSAHHVTTVNSTNCKKTPPEDCEGPFRPAEILKEGSVLDILKSPGFASPKIDSVAAQPTATSPVVYTRPAISSFSSSGIGFGESLKAGSSWQCDTCLLQNKVTDNKCIACQAAKLSPRDTAKQTGIETPNKSGKTTLSASGTGFGDKFKPVIGTWDCDTCLVQNKPEAIKCVACETPKPGTCVKRALTLTVVSESAETMTASSSSCTVTTGTLGFGDKFKRPIGSWECSVCCVSNNAEDNKCVSCMSEKPGSSVPTSSSSTVPVSLPSGGSLGLEKFKKPEGSWDCELCLVQNKADSTKCLACESAKPGTKSGFKGFDTSSSSSNSAASSSFKFGVSSSSSGPSQTLTSTGNFKFGDQGGFKIGVSSDSGSINPMSEGFKFSKPIGDFKFGVSSESKPEEVKKDSKNDNFKFGLSSGLSNPVSLTPFQFGVSNLGQEEKKEELPKSSSAGFSFGTGVINSTPAPANTIVTSENKSSFNLGTIETKSASVAPFTCKTSEAKKEEMPATKGGFSFGNVEPASLPSASVFVLGRTEEKQQEPVTSTSLVFGKKADNEEPKCQPVFSFGNSEQTKDENSSKSTFSFSMTKPSEKESEQPAKATFAFGAQTSTTADQGAAKPVFSFLNNSSSSSSTPATSAGGGIFGSSTSSSNPPVATFVFGQSSNPVSSSAFGNTAESSTSQSLLFSQDSKLATTSSTGTAVTPFVFGPGASSNNTTTSGFGFGATTTSSSAGSSFVFGTGPSAPSASPAFGANQTPTFGQSQGASQPNPPGFGSISSSTALFPTGSQPAPPTFGTVSSSSQPPVFGQQPSQSAFGSGTTPNSSSAFQFGSSTTNFNFTNNSPSGVFTFGANSSTPAASAQPSGSGGFPFNQSPAAFTVGSNGKNVFSSSGTSFSGRKIKTAVRRRK	soluble
KGKKVILFAPTFRGSGHGTAHYPFFKIDFERLARYCEKNNAVVLFKMHPFVKNRLNIADKHKQYFVDVSDFREVNDILFITDLLISDYSSLIYEYAVFKKPMIFYAFDLEDYITTRDFYEPYESFVPGKIVQSFDALMDALDNEDYEGEKVIPFLDKHFKYQDGRSSERLVRNLFG	not soluble
